Assay [1] has as its target T1, OprF protein of Pseudomonas aeruginosa on bacteria of the CHA strain (Pseudomonas aeruginosa, UniProt P13794 25-350).
T1 sequence (looked up): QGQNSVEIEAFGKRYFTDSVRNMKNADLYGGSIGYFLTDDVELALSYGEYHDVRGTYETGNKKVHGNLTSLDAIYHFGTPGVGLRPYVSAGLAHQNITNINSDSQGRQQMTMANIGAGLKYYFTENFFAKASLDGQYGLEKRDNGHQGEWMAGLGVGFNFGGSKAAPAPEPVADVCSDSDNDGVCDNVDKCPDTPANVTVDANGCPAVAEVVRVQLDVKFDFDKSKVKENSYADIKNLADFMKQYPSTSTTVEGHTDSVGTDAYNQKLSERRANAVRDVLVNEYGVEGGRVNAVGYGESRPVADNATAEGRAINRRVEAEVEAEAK
Put plainly: cell-based or functional assay.

The target of assay [2] is T2, OprF protein of Pseudomonas aeruginosa with N-terminal polyhistidine tag, in proteoliposomes (Pseudomonas aeruginosa, UniProt P13794 25-350, limits assumed).
T2 construct: Made by cell-free synthesis (E. coli lysate) in the presence of liposomes; inserted in the liposomal membrane, found oligomerized, in open and closed channel conformations; Genbank AFM37279.1 is printed for OprF in general; The sense primer starts at the ATG of the gene, so the signal peptide may be part of the construct; also called porin OprF; OprF membrane antigen; not shown: N-terminal …
T2 sequence (looked up): T1 sequence (looked up)
As to the kind of experiment: ELISA on coated OprF proteoliposomes, anti-c-myc-peroxidase detection, one site-specific binding fit. As for the experimental part:
By way of example, the dissociation constant Kd is determined for the scFv fragments E7, F8, F10 and G9, with an ELISA method.
For this purpose, 100 μl of OprF proteoliposomes (containing an OprF concentration of 1 μg/ml) contained in fixation buffer (0.1 M sodium carbonate, 0.1 M sodium bicarbonate) are fixed at the bottom of the wells of a 96-well plate (Thermo Scientific®) overnight at 4° C. and under stirring. The wells are then blocked for 1 h at 21° C. with 100 μl of TBS Tween (TBST) buffer containing 5% milk. After washing the wells with 100 μl of TBST buffer, 100 μl of scFv fragment (E7, F8, F10 or G9), at 1:50; 1:200; 1:400; 1:800; 1:1600 and 1:3200 dilutions in TBST buffer, are added to the corresponding wells and incubated for 1 h at 37° C. under stirring. After washing the wells, 100 μl of anti-c-myc-Peroxidase antibody (Roche) (1:10000 dilution in TBST buffer containing 5% milk) is added to the wells and incubated for 1 h at 37° C. under stirring. After washing the wells 3 times, 50 μl of TMB is added to the wells and the plate is incubated at ambient temperature and protected from light for approximately 15 min. 50 μl of 1 M HCl is then added and the absorbance of each well is measured at 450 nm. These absorbance data are then analyzed using the GraphPad Prism software (non-linear regression analysis, “one site-specific binding” equation) in order to calculate the dissociation constant Kd of each scFv fragment tested. By way of comparison, a measurement is also made on the buffer only.
A general note: ELISA stands for enzyme-linked immunosorbent assay.

B1: scFv fragment F8 (scFv)
scFv: QVQLEQSGAEVKQPGASVKVSCKASGYSFSSYGMNWVRQAPGQRPEWLGWINADTGKSTYAPGFKERFTFSLDTSVSTAYLTISSLKAEDTAVYYCVRSCRGGVCQLYHWGQGVLITVSSGGGGSGGGGSGGGGSEIELTQSPTSIAVSRGERVTVSCMASSSVRTGYLHWYQQKPGFPPRLLVYGTSSLPSGVPARFSGSGSGTSYTLTISSVEPEDVAHYYCQQGHTIPLTFGGGTKVEIKHHHHHHEQKLISEEDL
notes: Macaque scFv, format VH-(G4S)3-VL-6xHis-c-myc
One may read the Kd as a measure of binding affinity in units of concentration. For the molecule B1, the “cytotoxicity of P. aeruginosa towards macrophages (LDH release, A490-A680 nm)” value in assay [1] was ~0.67 fraction of cytotoxicity reduced. The molecule also came in with a dissociation constant Kd in assay [2] of 211 nM.

B2: scFv fragment E7 (scFv)
scFv: QVQLEQSGAEVKQPGASVKVSCKASGYSFSSYGMNWVRQAPGQRPEWMGWINADTGKSTYAPGFKERFTFSLDTSVSTAYLTISSLKAEDTAVYYCVRSCRGGVCQLYHWGQGVLITVSSGGGGSGGGGSGGGGSDIELTQSPTSIAVSQGERVTISCTASSSVTTGYFHWYQQKPGFPPRLLVYGTSSLPSGVPARFSGSGSGTSYTLTISNMEAEDAAHYYCQQGHTIPLTFGGGTKVEIKHHHHHHEQKLISEEDL
notes: as for B1
With B2, the “cytotoxicity of P. aeruginosa towards macrophages (LDH release, A490-A680 nm)” value in assay [1] was ~0.67 fraction of cytotoxicity reduced. In addition, binding in assay [2] was put at a Kd of 213 nM.

B3: scFv fragment F10 (scFv)
scFv: QVQLEQSGAEVKQPGASVKVSCKASGYSFNTYGMNWVRQAPGQRPEWMGWINADTGKSTYAPGFKERFTFSLDTSVSTAYLTISSLKAEDTAVYFCVRSCRGGVCQLYHWGQGVLVTVSSGGGGSGGGGSGGGGSDIELTQSPTSMAVSQGERVTISCTASSSVSTNYLHWYQQKPGFPPRLLVYRTSSLAPGVPARFSGSGSGTSYTLTISNMEAEDAAHYYCQQGNTIPLTFGGGTKVEIKHHHHHHEQKLISEEDL
notes: as for B1
As for B3, binding in assay [2] was characterised by a dissociation constant (Kd) of 1490 nM.

B4: scFv fragment G9 (scFv)
scFv: QVQLEQSGAEVKHPGASVKVSCKASGYSFSTYGMNWVRQAPGQRPEWMGWINADTGKSTYAPGFKERFTFSLDTSVSTAYLTISSLKAEDTAVYYCVRSCRGGVCQLYHWGQGVLITVSSGGGGSGGGGSGGGGSELQMTQSPTSMAVSQGERVTISCTASSSVNTNYLHWYQQKPGFPPRLLVYGTSSLVAGVPARFSGSGSGTSYTLTISNMEAEDAANYYCQQGNTIPLTFGGGTKVEIKHHHHHHEQKLISEEDL
notes: as for B1
Consider B4, for which the “cytotoxicity of P. aeruginosa towards macrophages (LDH release, A490-A680 nm)” value in assay [1] is ~0.67 fraction of cytotoxicity reduced. The molecule also returned a Kd in assay [2] of 295 nM.

For the origin of these results see US20220267417A1 (UNIVERSIT GRENOBLE ALPES, published 2022).
